Laboratory results published in patent publication US20240293316.

Columns and labels:
[1] = target: T1, NPL (micellar nanoparticles of PPAL, DEX-containing PPA with L-MMP peptide) (not fully specified)
T1 chain: GPLGLAGGERDG

[2] = target: T2, NPD (micellar nanoparticles of PPAD, DEX-containing PPA with D-MMP peptide) (not fully specified)
T2 chain: GPLGLAGGERDG

[3] = target: T3, NPR (micellar nanoparticles of PPAR, DEX-containing PPA with random peptide) (not fully specified)
T3 chain: GGSGSGSGWGERDGS

B1: thermolysin (protein)
chain: ITGTSTVGVGRGVLGDQKNINTTYSTYYYLQDNTRGNGIFTYDAKYRTTLPGSLWADADNQFFASYDAPAVDAHYYAGVTYDYYKNVHNRLSYDGNNAAIRSSVHYSQGYNNAFWNGSQMVYGDGDGQTFIPLSGGIDVVAHELTHAVTDYTAGLIYQNESGAINEAISDIFGTLVEFYANKNPDWEIGEDVYTPGISGDSLRSMSDPAKYGDPDHYSKRYTGTQDNGGVHINSGIINKAAYLISQGGTHYGVSVVGIGRDKLGKIFYRALTQYLTPTSNFSQLRAAAVQSATDLYGSTSQEVASVKQAFDAVGVK
B1 was tested, and the “nanoparticle cleavage experiment (TEM after thermolysin treatment, 1 µM thermolysin : 100 µM polymer, 24 hours at 37° C.)” value (“nanoparticle cleavage experiment” below) [1] was “underwent cleavage induced aggregation”, the “nanoparticle cleavage experiment” value [2] was “maintained their nanoparticle morphology” and the “nanoparticle cleavage experiment” value [3] was “maintained their nanoparticle morphology”.
